Measurements reported in US20090233993A1, “COMPOSITIONS AND METHODS FOR INHIBITING GSK3 ACTIVITY AND USES THEREOF” (Burnham Institute for Medical Research, priority 2008, published 2009).

System: γ-secretase
Assay: γ-secretase cleavage on Notch (NICD generation) and nicastrin level
Format: cell-based, mouse
From the text: The levels of the recombinant Notch (NotchΔE with Myc-tag) and the γ-secretase cleaved Notch fragment (NICD) were quantified by Western blotting using myc antibody and an antibody specific to processed Notch followed by densitometry. […] The results represent at least four independent experiments.
N2a cells were transfected with Myc-tagged Notch1 NΔE construct lacking the ectodomain, which allows ligand-independent processing by γ-secretase to produce NICD (Schroeter et al., 1998). NICD generation was analyzed by immunoblot with an antibody specifically recognizing the cleaved Notch product NICD (Cell Signaling Technology).
Cleavage of Notch, another important γ-secretase substrate (Kopan and Goate, 2000), was not altered by FG01 overexpression. N2a cells were transfected with Myc-tagged Notch1 NΔE construct. After equal splitting, cells were transfected with control vector (Con) or FG01. Cell lysates were subjected to SDS-PAGE and Western blot with the Myc antibody (recognizing both exogenous FG01 and Notch NΔE) and with an NICD-specific antibody. Protein levels of nicastrin, an important component of the γ-secretase complex, were also not affected by FG01 overexpression.

protein levels of nicastrin (FG01 overexpression in N2a cells): not affected
Notch cleavage (Notch ΔE cotransfected with FG01): not altered
B1: FG01: 141 amino acid transmembrane protein encoded by mouse retrogene fg01 (SEQ ID NO:2); expressed from transfected vector or transgene (protein)
chain: MQSQQRNIGYFNHLKADSRNITYSMTFSTKSSNQNFIIFLNEVQAAIIGHERCDLLPVLNELHPDALPDGRIWLFGLNPYFFQHNSLCMRGTPKRIGLQGCAQVGFLVLFVMPLLIPSVTAELPGSSETTTLAHLAGATGP
modifications: Myc and His6 tags; homo sapien
notes: expressed from transfected vector or transgene
